The supplement of paper PMC10567573

B1: LARP4 (parent)
chain: WTVANMEEIKKLTTDPDLILEVLR
B2: ZNF649 (parent)
chain: YQAGKPDALTKLEQGEPLWTLEDE

Variants of: B1
Assay: protein stability index of a GFP-peptide fusion (GPS, HEK-293T) (PSI 1-6); higher = more stable
Conditions: c terminus: a fixed tail appended
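Further: lentivirally expressed fusions sorted by FACS into six bins by GFP to DsRed ratio, PSI derived from sequencing read proportions per bin multiplied by bin number.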

Protein stability index: each site, then its substitutions
L23: Q 2.63, V 2.85, I 2.65, P 2.89, M 2.12, T 3.08, N 3.56, E 2.96, H 2.61, K 3.28, R 2.47, W 2.96, F 2.46, D 4.03, Y 3.06, S 3.27
R24: V 1.83, H 1.75, A 2.12, S 2.27, K 1.82, I 2.14, M 1.47, F 1.74, C 2.3, P 2.37, G 2.65, D 2, E 2.53, Y 1.57, Q 2.38, N 2.48, W 2.31, L 1.12, T 2.5

Variants of: B2
Assay: as above
Conditions: c terminus: a fixed tail appended

Protein stability index, by site and new letter:
Y1: K 5.51, G 4.71, N 5.22, I 5.01, H 5.25, D 5.21, C 5.06, S 5.54, F 3.39, P 4.5, T 5.57, Q 5.46, A 4.88, M 4.75, W 4.7, R 5.16, L 4.51
A8: L 3.56, I 4.08, D 4.94, T 3.95, Q 4.41, H 4.04, C 3.61, M 3.83, P 4.27, R 4.65, G 4.87, S 4.46, N 4.49, F 2.91, E 5.31, K 4.85
P6: L 3.79, S 4.19, V 4.42, F 3.31, G 4.99, H 3.93, C 4.17, I 4.32, A 3.88, E 5.46, N 4.15, W 2.99, K 4.29, Y 3.91, T 4.64, Q 4.15, M 3.85, D 3.77
A3: W 2.2, V 4.42, L 4.26, H 4.14, Q 4.75, K 4.75, C 3.83, R 3.66, P 4.36, T 4.54, E 4.65, F 3.64, I 4.51, Y 4.25, N 4.71, M 4.1
G4: D 5.05, N 4.92, F 4.8, S 4.4, C 4.47, A 4.68, H 4.58, P 4.63, K 4.18, T 3.97, R 3.53, I 4.22, E 4.38, L 4.17, Y 3.59, Q 4.08
D7: P 4.16, Q 3.58, A 3.4, N 3.26, H 4.18, L 3.15, Y 2.06, S 3.99, C 2.37, I 2.61, R 3.65, V 3.28, T 3.59, E 4.77, K 3.66, F 2.49
Q2: T 5.05, P 4.8, F 4.6, D 5.48, C 3.87, G 4.38, V 2.53, L 3.1, K 4.58, Y 3.56, S 4.99, I 3.29, R 5.15, M 4.63, A 3.68, N 4.22, E 5.66, H 3.08
K5: S 4.48, M 4.38, Y 2.6, I 4.02, F 2.76, N 4.84, P 5, A 4.48, V 3.03, D 4.01, R 3.31, T 4.6, C 4.72, L 4.05, E 4.59
